experiment: yeast display, Sf9 membrane polyspecificity reagent, FACS + sequencing; frameworks hold sequencing errors
Outline: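 Synthetic nanobody libraries on Saccharomyces cerevisiae BJ5465 were galactose-induced for 36–48 hours, stained 1 hour at 4 °C with 10% biotinylated, detergent-solubilized Sf9 membrane reagent and enriched on streptavidin microbeads. FACS then separated cells into low and high (top ~1%) gates by anti-HA (expression) and streptavidin (reagent binding) fluorescence. Genes were colony-PCR amplified, MiSeq 2 × 250 sequenced and CDR-length filtered. A clone's polyreactivity label is that of its gate of origin.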

Sequence	polyreactivity (PSR sort gate)
QLQLVESGGGLVQAGGSLRLSCAASGSIFRWYTMGWYRQAPGKERELVAAISSGGSTNYADSVKGRFTISRDNAKNTVYLQMNSLKPEDTAVYYCAARAIYKSKYDYWGQGTQVTVSS	high polyreactivity
QLQLVESGGGLVQAGGSLRLSCAASGSIFYGYAKGWYRQAPGTERELVAAINTSGGSTFYADSVKGRFTISRDNANNTVYLQMNSLKPEDTAVYYCAAERYRYRSTDTMGYWGQGTQVTVSS	low polyreactivity
QLQLVESGGGLVQAGGSLRLSCAASGSILSRYAMGWYRQAPGKEMELVAGITRGGSTNYADSVKGRFTISRDNAKNTVYLHMNSLKPEDTAVYYGAKASRRFLTLGYDYWGQGTQVTVSS	high polyreactivity
QLQLVESGGGLVQAGGSLRLSCAASGSTFGPYTMGWYRQAPGKERELVATISSGGSTYYADSVKGRFTISRDNAKNTVYLQMNSLKPEDTAVYYCAARYWSIYDYWGQGTQVTVSS	low polyreactivity
QLQLVESGGGLVQAGGSLRLSCAASGSTFPLYAMGWYRQSPGKERELVASITTGGGNTYYADSVKGRFTISRDNAKNTVYLKMNSLKPEDTAVDYCAKPYHIGLSGRRTYDYWGQGTQVTVSS	high polyreactivity
QLQLVESGGGLVQAGGSLRLSCAASVFTLRGYAMGWYRQATCKERELVADISGGGSTDYADSVKVRFTISRDNAKNTVYLQMNSLKPEDTAVYYCAAYGYLWWEMDYWGQGTQVTVSS	high polyreactivity
QLQLVESGGGLVQAGGSLRLSCAHSGRTFYVNAIGWSRQAPRKERELVATITDRGGRSYYADSVKGRFTISRDNAKNSVYLQMTSLKPEDTAVYYCAATRWYEVDYWGQGTQVTVSS	low polyreactivity
QLQLVESGGGLVQAGGSLRLSCAPSGYTFYLYAMGWYRQAPGKARELDAAISNRGGSTYYADSVKGRFTISRDNAKNTVYLQMKSLKPEDTAFYYCAATVGKAGGRYYDRRYYWGQGTQVTVSS	high polyreactivity
QLQLVESGGGLVQAGGSLRLSCASGLTFYWYAMGWYRQAPGKERELVAAINVRGGSTYYADSVKGRFTISRDNAKNTVYLQMNSLKPEDTAGYDCASYYPGFSYRYDYWGQGSQVTVSS	low polyreactivity
QLQLVESGGGLVQAGGSLRLSCASSGFTLTYAMGWDRQAPGKERELVAAISSSGVRTYYADSVKGRFTISRDNAKNTVYLQKNSLKPEDTALYYCNAFIHGSRSYISDYYWGQGTQVTVSS	high polyreactivity
QLQLVESGGGLVQAGGSLRLSSAASGRTFRWNAMGWYRQAPGKERELVAAISSGGSTYYADSVKGRFTISRDNAKNTVYLQMNSLKPEDTAVYYCAKTSFKYRWSYPVISMDYWGQGTQVTVSS	high polyreactivity
QLQLVESGGGLVQAGGSLRLSSAPSGITLQYYAMGWYRQAPGKERELVAAISYRGGRTYYADSVKGRFTISRDNAKNTVYLQMNSLKPEDTAGYYCARRSSKPSSIQYYYWGQGTQVTVSS	high polyreactivity
QLQLVESGGGLVQAGGSLSLSCAASGSIFNSKRMGWYRPAPGKERELVAAITGGGSTNYADSVKGRFTISRDNAKNTVYLQMNSLKPEDTAVYYCAADYPPTFYYWYEEYEYWGQGTQVTVSS	low polyreactivity
QLQLVESGGRLVQAGGSLRLSCAASGRIFYANAMGWYRQAPGKERELVAAISSGGSTYYADSVKGRFTISRDNAKNTVLLQMNSLKPEDTAVYYCAVYTHKKVRPEYDYWGQGTQVTVSS	low polyreactivity
QLQLVESGRGLVQAGGSLRLRCAASGRTFNRYTMGGYRQAPGKERELVAAISRGAGTNYADSVKGRFTISRDNAKYTVYLQMKSLKPEDTAVYYCAAGYEIGYRTGRSGNTAHIYYWGQGTQVTVSS	high polyreactivity
QLQLVESGRGLVQAGGSLRLSCAASGIIFYYNAMGWYRQAPGKERELVARITWRAGSTYYADSVKGRFTISRDNAKNTVYLQMNSLKPEDTAVYYCAARFTTTGPRGYYYWGQGTQVTVSS	high polyreactivity

Sequence	polyreactivity (PSR sort gate)
QLQLVESRGGLVQAGGSLRLSCASSGFIFKQNAMGWYRQAPGNERELVAAISVSGGSTYYADSVKGRFTISRDNAKNTVYLQMNSLKPEYSAVYYCNTRDRGDVVTGLDYWGQGTQVTVSS	low polyreactivity
QLQLVETGGGLVQAGGSLRLSCAASGRIYYGYAMGWYRPAPGKERELVAAISWSGGSTYYADSVKGRFTISRDNAKNTVYLQMNSLKPEDTAVYYCARDAPYLYRAFDYWGQGTQVTVSS	high polyreactivity
QLQLVETGGGLVQAGGSLRLSCAASGYIFVYNDMGWSRQAPGKERELVAAITFSGGITYYADSVKGRFTISRDNAKNTVYLQMNSLKPEDTAVYYCAAADYWFYYGYYLTMDYWGQGTQVTVSS	low polyreactivity
QQLQESGGGLVQAGGSLRLSCAASGSISGSVLMGLYRQAPGKEREFVASISLGGNTNYADSVKGRFTISRENGKITVFLQMNSLKPEVAAVYYCAAYISLFETHPYWGQGTQVTVRS	high polyreactivity
QVDLVESAGGLVQAGGSLRLSCAASGSIFPGYTMGWYRQAPGQERELVAAISRRGGSTYYADSVKGRFTISRDNAKNTVYLQMNSLIPEDTAVYYCAIVPDYRFEYWGQGSQVTVSS	high polyreactivity
QVELVDSGGGLVQAGGILRLSCPASGSTIPTNVMGWSRQAPGKERECVAAITWSVGSTYYADSVKGRFTISRDNAKNTVYLQMNSLKPEDTAVYYCTADSQVLSAPDDYWGQGTQVTVSS	low polyreactivity
QVELVESGGGLGQAGGSLRLSCAASGSTFASNTLGWYRQAPGKEREVVAAITQSGGTTYYADSVKGRFTISRDNAKNTVFLQMNSLKPEDTAVYYDYWGQGTQVTVSS	low polyreactivity
QVELVESGGGLVQAGGCLRLSCAASGGIFESYAMGWYRRAPGRERELVADSTSGGSTNYADSVKGRFTIAGDNAKNTLYLQMNSLKPEDTAVYYCAKEFYYSVGVNLGDSWGQGTQGTVSS	low polyreactivity
QVELVESGGGLVQAGGILRLSCAASGSTFSIYAMGWYRQGPGKERELVAAISGDGITKYADSVKGRFTISRDNAKNTVYLQMNSLKPEDTAVYYCNAHELTDDGKMDSWGQGTQVTVSS	low polyreactivity
QVELVESGGGLVQAGGSLRLRCAASGLTFYYYPMGWYRQAPGKERELFAAIASVGSTYYADSVKGRFTISRDNATNTVYLQMNSLKPDDTAVYYCAAKSFWWHEDYWGQGTQVTVSS	low polyreactivity
QVELVESGGGLVQAGGSLRLSCAASGFIFTYYAMGWYSQAPWKERELVATISSGGGSTYYADSVKGRFTISRDNAKNTVYLQMYSLNPEDTAVYYCAASRRITGIRYINRYAYWGQGTQVTVSS	high polyreactivity
QVELVESGGGLVQAGGSLRLSCAASGFTFNGTAMGWYRQAPGKDRELVAAMSRGGSPSYADSVKGRFTISRDNAKKTVYLPMNSLKPEATAVYYCAAVSYGRFRRYEYWVQGTQVTVSS	high polyreactivity
QVELVESGGGLVQAGGSLRLSCAASGYIFNYYAMGWYRQAPGKERELVAAISTSGGSTYYADSVKGRFTISRDNAKNTVYLQMNSLKPEDTAVYYCAAVDYKANGYGYWGQGTQVTVSS	high polyreactivity
QVHFVESGGGLVQAGGSLSLSCAASGLTFSYYAMGWYRQAPGKERELVARISNSGGCTYYADSVKGRFTISRDNAKITVYLQMNSLKPEDTAVYYCAALHTSLHRNKYEYWGQGTQVTVSS	high polyreactivity
QVHHLESRGGLVQEGGSLPISCGASGSTFLRYALGWYRQAPGKVRELVADITTSGGITYYADSVKGRFTISRDNAKYTVYLQLNSLKPEDTAVYDCDYWGQGTQVTVSS	low polyreactivity
QVHHVESGGGLVQAGGSLRLSCAASGFIFTYNAMGWYRQAPGKERELVAAIRSGTNTSYADSVKGRFTISRDNAKNTVYLQMNSLKPEDTAVYYCNREVPEYQGFITPDGYWGQGTQVTVSS	low polyreactivity
